The RNAGym collection of RNA variant scans (doi:10.1021/acssynbio.7b00057)

B1: Pistol ribozyme (parent)
chain: GGGUCGUUGUUCCAUAAUCGCGUGGAUAUGGCACGCAAGUUUCUACCGGGCACCGUAAAUGUCCGACUGGAGCCGUUCGGGCGGCUAUAAACAGACCUCAGGCCCGAAGCGUGGCGGCACCUGCCGCCGGUGGUAAAAAAGAUCGGAAGAGCACACGUCU

Variants of: B1
Experiment: aptazyme ON/OFF ratio, guanine; higher = stronger switching; co-transcriptional cleavage with and without guanine

For U7C U8C G9A U11G C12G C13G, which “aptazyme ON/OFF ratio” value is on record?
Its value is 1.11.

Which “aptazyme ON/OFF ratio” value does the source give for U8A G9A U10C U11A C13G here?
Its value is 1.07.

With U8A U10G U11A C13U as the variant, how does the “aptazyme ON/OFF ratio” value read?
Its value is 1.13.

For U8C U11G C12A C13G, which “aptazyme ON/OFF ratio” value is on record?
Its value is 1.16.

Which “aptazyme ON/OFF ratio” value does the source give for U8A G9C U10G U11G C12U here?
The value was 1.23.

For U7C U8G U11A C12G, which “aptazyme ON/OFF ratio” value is on record?
Its value is 1.1.

For U7A U8C G9C U10A U11C C13G, which “aptazyme ON/OFF ratio” value is on record?
The value was 1.46.

With U7A U8C G9U U10C U11G C12U C13G as the variant, how does the “aptazyme ON/OFF ratio” value read?
The value was 1.18.

Which “aptazyme ON/OFF ratio” value does the source give for U7G U8A G9C U10C U11C C12U C13U here?
The value was 1.01.

Which “aptazyme ON/OFF ratio” value does the source give for U7A G9C U10A U11C C12U C13G here?
Its value is 1.13.

Which “aptazyme ON/OFF ratio” value does the source give for U7A U8C G9U U10C U11C C12G here?
The value was 1.07.

With G9U U10G U11G C12G C13A as the variant, how does the “aptazyme ON/OFF ratio” value read?
The value was 1.25.

With U8C U11A C12G C13A as the variant, how does the “aptazyme ON/OFF ratio” value read?
The value was 1.1.

Which “aptazyme ON/OFF ratio” value does the source give for U7G U8C G9C U10A U11A C13A here?
Its value is 1.09.

Which “aptazyme ON/OFF ratio” value does the source give for U8C G9U U11G C12U C13G here?
Its value is 1.15.

For U7G U8G U10G U11G C12U C13A, which “aptazyme ON/OFF ratio” value is on record?
The value was 1.13.

Which “aptazyme ON/OFF ratio” value does the source give for U7G U8G G9C U10G U11G C13A here?
The value was 1.18.

Which “aptazyme ON/OFF ratio” value does the source give for U8G U10G C13U here?
The value was 1.11.

For U7A U8G U10A C12U, which “aptazyme ON/OFF ratio” value is on record?
The value was 1.17.

For U7C U8C G9C U10C U11A, which “aptazyme ON/OFF ratio” value is on record?
The value was 1.4.

For U7A U8C G9A U10A U11C C13G, which “aptazyme ON/OFF ratio” value is on record?
Its value is 1.03.

For U7G G9A U10A U11A C12G C13U, which “aptazyme ON/OFF ratio” value is on record?
Its value is 1.12.

Which “aptazyme ON/OFF ratio” value does the source give for U7A U8C G9U U10A U11C C12U C13U here?
Its value is 1.18.

With U7G G9C U10C U11A C13U as the variant, how does the “aptazyme ON/OFF ratio” value read?
Its value is 1.25.

For U7G U8A G9A U11G C12G, which “aptazyme ON/OFF ratio” value is on record?
The value was 1.41.

For U7A G9A U10G U11G C12A C13U, which “aptazyme ON/OFF ratio” value is on record?
Its value is 1.33.

With U7C U8C G9A U11A C13U as the variant, how does the “aptazyme ON/OFF ratio” value read?
The value was 1.32.

With U8G G9C U10G U11G C12A C13A as the variant, how does the “aptazyme ON/OFF ratio” value read?
Its value is 1.18.

For G9U U10A C12G C13G, which “aptazyme ON/OFF ratio” value is on record?
Its value is 1.33.

With U7G U8C U10C U11G C12A C13U as the variant, how does the “aptazyme ON/OFF ratio” value read?
The value was 1.29.

With U7C G9C U11G C12U C13A as the variant, how does the “aptazyme ON/OFF ratio” value read?
The value was 1.1.

With U7G U8C U10C U11C C12G C13U as the variant, how does the “aptazyme ON/OFF ratio” value read?
Its value is 1.14.

With U7G U8G G9A C12G C13A as the variant, how does the “aptazyme ON/OFF ratio” value read?
Its value is 1.14.

For U7G U8G G9A U10G U11C C12G C13A, which “aptazyme ON/OFF ratio” value is on record?
The value was 1.16.

With U7A U8A U10C U11C C13A as the variant, how does the “aptazyme ON/OFF ratio” value read?
Its value is 1.01.

For U7A U8A G9U U10C U11A C12U C13G, which “aptazyme ON/OFF ratio” value is on record?
The value was 1.18.

Which “aptazyme ON/OFF ratio” value does the source give for U7A U8G C12G C13A here?
Its value is 1.38.

Which “aptazyme ON/OFF ratio” value does the source give for U7A U8G C12G C13U here?
The value was 1.38.

Which “aptazyme ON/OFF ratio” value does the source give for U7G G9U U10G C12A C13U here?
The value was 1.41.

Which “aptazyme ON/OFF ratio” value does the source give for U8A G9U U11C C12G here?
The value was 1.08.

With U7G U8C G9A C13A as the variant, how does the “aptazyme ON/OFF ratio” value read?
Its value is 1.09.

For U7A U8G U10C C12U C13A, which “aptazyme ON/OFF ratio” value is on record?
Its value is 1.55.

With U7G U8A G9A U10C C12A C13A as the variant, how does the “aptazyme ON/OFF ratio” value read?
Its value is 1.07.

With U8A G9C U11A C12U C13G as the variant, how does the “aptazyme ON/OFF ratio” value read?
The value was 1.15.

With U7G U8G G9U U10C U11G C12A C13G as the variant, how does the “aptazyme ON/OFF ratio” value read?
The value was 1.15.

For U7C U11C C12G C13U, which “aptazyme ON/OFF ratio” value is on record?
The value was 1.22.

For U7C G9A U10A U11G C12A C13U, which “aptazyme ON/OFF ratio” value is on record?
The value was 1.15.

Which “aptazyme ON/OFF ratio” value does the source give for U7A U8G G9U U10G U11G C12U here?
Its value is 1.36.

Which “aptazyme ON/OFF ratio” value does the source give for U7A U8G U10A U11G C12A C13A here?
Its value is 1.28.

Which “aptazyme ON/OFF ratio” value does the source give for U7C G9U U10A U11G C13A here?
The value was 1.14.

With U7A U8A G9C U10A U11G C12G C13G as the variant, how does the “aptazyme ON/OFF ratio” value read?
Its value is 1.25.

For U7A U8A G9C U10A U11G C12G C13A, which “aptazyme ON/OFF ratio” value is on record?
Its value is 1.18.

For U7C U8C G9C U10A U11G C12A, which “aptazyme ON/OFF ratio” value is on record?
The value was 1.16.

Which “aptazyme ON/OFF ratio” value does the source give for U7C G9A U10C U11G C13A here?
The value was 1.19.

Which “aptazyme ON/OFF ratio” value does the source give for G9A U10A U11G C12G C13A here?
Its value is 1.42.

For U7G U8G G9C U10A U11G C12A C13A, which “aptazyme ON/OFF ratio” value is on record?
Its value is 1.07.

With U8C G9C U10A U11A C12G as the variant, how does the “aptazyme ON/OFF ratio” value read?
Its value is 1.25.

Which “aptazyme ON/OFF ratio” value does the source give for U7G U8G G9U U10C U11G C12U C13U here?
Its value is 1.4.

With U8A G9C U10C U11C C12U C13G as the variant, how does the “aptazyme ON/OFF ratio” value read?
Its value is 1.01.

For U7A U8A G9U U10A U11G, which “aptazyme ON/OFF ratio” value is on record?
Its value is 1.38.

Which “aptazyme ON/OFF ratio” value does the source give for U7A U8C G9U U10A U11A C12G C13G here?
Its value is 1.2.

With U7C U8A U10G U11A C12A C13G as the variant, how does the “aptazyme ON/OFF ratio” value read?
Its value is 1.08.

Which “aptazyme ON/OFF ratio” value does the source give for U7A U8A G9A U11A C12A C13U here?
Its value is 1.07.

For U8G U10A C12G C13G, which “aptazyme ON/OFF ratio” value is on record?
The value was 1.14.

Which “aptazyme ON/OFF ratio” value does the source give for U7C U10G C12U C13A here?
The value was 1.25.

For U7G G9C U10G U11G C12A C13A, which “aptazyme ON/OFF ratio” value is on record?
Its value is 1.1.

With U7C G9C U10G U11G C12U C13G as the variant, how does the “aptazyme ON/OFF ratio” value read?
The value was 1.13.

For U7A U8G G9C U11G C12A C13G, which “aptazyme ON/OFF ratio” value is on record?
The value was 1.26.

For U7A G9U U10A C13A, which “aptazyme ON/OFF ratio” value is on record?
The value was 1.08.

Which “aptazyme ON/OFF ratio” value does the source give for U7C U8A G9U U10A U11A C12G C13G here?
The value was 1.2.

For U7C U8C G9C U11G C13G, which “aptazyme ON/OFF ratio” value is on record?
Its value is 1.12.

With U8C G9C U10C U11G C12U C13G as the variant, how does the “aptazyme ON/OFF ratio” value read?
The value was 1.1.

With U7A G9C U10C C12A C13A as the variant, how does the “aptazyme ON/OFF ratio” value read?
Its value is 1.07.

With U7G U8A U11C C13A as the variant, how does the “aptazyme ON/OFF ratio” value read?
The value was 1.32.

Which “aptazyme ON/OFF ratio” value does the source give for U7A U10C U11C C12G C13G here?
Its value is 1.09.

For U7C U8A U10C, which “aptazyme ON/OFF ratio” value is on record?
Its value is 1.76.

With U7A U8C G9C U10A U11A C12G as the variant, how does the “aptazyme ON/OFF ratio” value read?
The value was 1.13.

With U7G U8A U11G C12U C13U as the variant, how does the “aptazyme ON/OFF ratio” value read?
Its value is 1.17.

For U7G U8A G9U U10A U11G C12G C13A, which “aptazyme ON/OFF ratio” value is on record?
The value was 1.13.

For U7C U8G G9U U10C U11A C12A, which “aptazyme ON/OFF ratio” value is on record?
The value was 1.43.

With U7G G9C U10C U11A C12G C13U as the variant, how does the “aptazyme ON/OFF ratio” value read?
The value was 1.31.

For U7G U8A G9C, which “aptazyme ON/OFF ratio” value is on record?
Its value is 1.12.

For U7C G9A U10C C12A, which “aptazyme ON/OFF ratio” value is on record?
Its value is 1.27.

For U7C U8G G9A U10G C13A, which “aptazyme ON/OFF ratio” value is on record?
Its value is 1.23.
